Measured values: patent publication US20110092427A1, “POLYPEPTIDE AND PHARMACEUTICAL COMPOSITION CONTAINING THE POLYPEPTIDE” (National University Corporation Hokkaido Universit y, priority 2008, published 2011)
Peptide text beside a SMILES is read from it.

How the values were obtained:
[1] = test system: psoriasis patient-derived skin grafted onto the back of a mouse; assay: External application to psoriasis patient skin grafted onto SCID mice; type: in vivo; conditions: for side effects at the applied sites: 70 μL of 1 mM solution in PBS applied to grafted site daily for 14 days; for thickness of the grafted skin (HE-stained sections): psoriasis skin graft, 70 μL of 1 mM solution applied daily for 14 days, FIG. 6, p<0.05
Source text: The hair in the area of approximately 1 cm^2 in the back of 7 to 8 week-old SCID mice (Clea Japan, Inc.) was shaved, and the full-thickness skin was removed while keeping the vessel plexus intact on the fascia overlying back muscles. The skin of affected area of a psoriasis patient that was sampled under the approval of the ethical code was washed with PBS containing 1% penicillin, 1% streptomycine, and 1% amphotericin B, and each piece of the skin thus treated was separately transplanted onto the skin-removed area of the above-described mice.
Seven days after transplantation, 70 μL of each of solutions prepared by dissolving polypeptides P5-1, P5-2, and P5-3 into phosphate buffered saline (PBS) (each 1 mM) was applied to the grafted sites of three mice daily for 14 days. […] Further, as a control, the same volumes of PBS solution containing a polypeptide having a random sequence and PBS without polypeptide were applied. After 14 days, a part of the grafted skin was collected and embedded in an optimal cutting temperature (OCT) reagent (Sakura finetechnical Co., Ltd.) and then frozen in liquid nitrogen, which was then prepared as 5 μm-thick sections.
Also, in accordance with the method of Abe et al. (Am. J. Pathol., 2004, Vol. 164, No. 4, pages 1225-1232), the capillary endothelial cells in the grafted superficial dermis were enumerated by immunoassay employing a rat anti-mouse CD31 antibody using CD31, which was a marker protein of the capillary endothelial cells, as an index.

[2] = test system: human osteosarcoma cells, MG63; assay: Inhibition of MG63 tumor cell proliferation, 5-bromo-2' deoxyuridine incorporation; type: cell-based; conditions: 100 nM; FIG. 3 and FIG. 4, p<0.01
Protocol: (§1) The inhibitory effect of each polypeptide on tumor cell proliferation with respect to human osteosarcoma cells, MG63 (Health Science Research Resources) was measured in accordance with the method described by Takenaka et al. (Life Science, 2005, Vol. 77, pages 3231-3241).
(§2) Into Dulbecco's modified Eagle's medium (DMEM) supplemented with 10% of fetal bovine serum (FBS) and 100 units/mL penicillin and streptomycin (hereinbelow, simply referred to as a medium), MG63 was suspended. Then, 100 nM commercially available PEDF protein (Sigma) and each of 100 nM polypeptides F1 to F3 prepared in Example 1 “2) Production of polypeptides F1 to F3” were each added per medium, followed by incubation at 37° C. for 24 hours. Subsequently, [^3H] thymidine (Amersham Biosciences Corp.) was added and incubation was carried out for four hours, after which the amount of [^3H] thymidine incorporation by MG63 was measured and the inhibitory effect on tumor cell proliferation was examined.
Also, by carrying out similar operations to the above, the inhibitory effect on MG63 tumor cell proliferation was examined by measuring the amount of 5-bromo-2′ deoxyuridine (Roche) incorporation with addition of each of 100 nM polypeptides P1 to P6. […]

[3] = test system: human osteosarcoma cells, MG63; assay: Inhibition of MG63 tumor cell proliferation, [3H] thymidine incorporation; type: cell-based; conditions: 100 nM, incubation 24 hours, then [3H] thymidine four hours; FIG. 2, p<0.01
Protocol: as §1, §2

[4] = test system: normal individual-derived skin grafted onto the back of mice; assay: Subcutaneous injection at normal individual skin grafted onto SCID mice; type: in vivo; conditions: skin of a normal individual, 30 μg subcutaneous injection, three times/week for three weeks
Source text: (§3) Further, in a similar manner to the above, the hair in the area of approximately 1 cm^2 in the back of 7 to 8 week old SCID mice (Clea Japan, Inc.) was shaved, and the full-thickness skin was removed while keeping the vessel plexus intact on the fascia overlying back muscles. The skin of affected area of a psoriasis patient and the skin of a normal individual that were sampled under the approval of the ethical code were each washed with PBS containing 1% penicillin and 1% amphotericin B, and each of the skin thus treated was separately transplanted onto the skin-removed area of the above-described mice.
(§4) Seven days after transplantation, commercially available PEDF protein (30 μg) was given at the grafted site by subcutaneous injection. The injection was administered for three weeks at three times/week. As a control, a mouse given subcutaneous injection of only PBS was used. The day after the last subcutaneous injection, a part of the grafted skin was collected and stained with HE in a similar manner to the above, and the thickness of the grafted skin was measured. The results obtained from the skin of affected area of a psoriasis patient are shown in FIG. 8 (photograph) and FIG. 9, and the results obtained from the skin of a normal individual are shown in FIG. 10 (photograph) and FIG. 11.
(§5) Also, by carrying out similar operations to the above, the capillary endothelial cells were enumerated using CD31 as an index. The results obtained from the skin of affected area of a psoriasis patient are shown in FIG. 12 and the results obtained from the skin of a normal individual are shown in FIG. 13.
(§6) Further, the frequency of Ki-67 expressing positive cells, where Ki-67 is a proliferation marker of the basal cell layer, was measured in accordance with the method of Gilhar et al. (Am. J. Pathol., 2006, Vol. 168, No. 1, pages 170 to 175). The results obtained from the skin of affected area of a psoriasis patient are shown in FIG. 14 and the results obtained from the skin of a normal individual are shown in FIG. 15.

[5] = test system: psoriasis patient-derived skin grafted onto the back of mice; assay: Subcutaneous injection at psoriasis patient skin grafted onto SCID mice; type: in vivo; conditions: skin of affected area of a psoriasis patient, 30 μg subcutaneous injection, three times/week for three weeks
Source text: as §3, §4, §5, §6

Molecule: polypeptide P5-3: polypeptide of SEQ ID NO: 3, identical to positions 395 to 400 of PEDF (FIFVLRD; listed as Homo sapiens)
- side effects at the applied sites [1]: no side effects and the like were apparent
- thickness of the grafted skin (HE-stained sections) [1]: significantly reduced

Molecule: CC(C)C[C@H](NC(=O)[C@@H](N)Cc1c[nH]cn1)C(=O)N[C@H](C(=O)N[C@@H](Cc1ccccc1)C(=O)N1CCC[C@H]1C(=O)N[C@@H](CC(C)C)C(=O)N[C@@H](CC(=O)O)C(=O)O)[C@@H](C)O [polypeptide P5-1] (H-HLTFPLD-OH)
- side effects at the applied sites [1]: no side effects and the like were apparent

Molecule: polypeptide P5-2: polypeptide of SEQ ID NO: 2, identical to positions 388 to 394 of PEDF (YHLNQP; listed as Homo sapiens)
- side effects at the applied sites [1]: no side effects and the like were apparent
- thickness of the grafted skin (HE-stained sections) [1]: significantly reduced

Molecule: polypeptide P5: polypeptide of SEQ ID NO: 5, identical to the amino acid sequence of positions 381 to 400 of PEDF (HLTFPLDYHLNQPFIFVLRD; listed as Homo sapiens)
- inhibitory effect on MG63 tumor cell proliferation (amount of 5-bromo-2' deoxyuridine incorporation) [2]: an inhibitory effect on tumor cell proliferation was confirmed

B1: polypeptide F3: polypeptide comprising the amino acid sequence of positions 301 to 418 of PEDF (SEQ ID NO: 4) (protein, listed as Homo sapiens)
chain: IDRELKTVQAVLTVPKLKLSYEGEVTKSLQEMKLQSLFDSPDFSKITGKPIKLTQVEHRAGFEWNEDGAGTTPSPGLQPAHLTFPLDYHLNQPFIFVLRDTDTGALLFIGKILDPRGP
- inhibitory effect on tumor cell proliferation (amount of [3H] thymidine incorporation by MG63) [3]: a strong inhibitory effect on tumor cell proliferation was confirmed

B2: PEDF protein: commercially available PEDF protein comprising the amino acid sequence of SEQ ID NO: 6 (Sigma) (protein, listed as Homo sapiens)
chain: MQALVLLLCIGALLGHSSCQNPASPPEEGSPDPDSTGALVEEEDPFFKVPVNKLAAAVSNFGYDLYRVRSSTSPTTNVLLSPLSVATALSALSLGAEQRTESIIHRALYYDLISSPDIHGTYKELLDTVTAPQKNLKSASRIVFEKKLRIKSSFVAPLEKSYGTRPRVLTGNPRLDLQEINNWVQAQMKGKLARSTKEIPDEISILLLGVAHFKGQWVTKFDSRKTSLEDFYLDEERTVRVPMMSDPKAVLRYGLDSDLSCKIAQLPLTGSMSIIFFLPLKVTQNLTLIEESLTSEFIHDIDRELKTVQAVLTVPKLKLSYEGEVTKSLQEMKLQSLFDSPDFSKITGKPIKLTQVEHRAGFEWNEDGAGTTPSPGLQPAHLTFPLDYHLNQPFIFVLRDTDTGALLFIGKILDPRGP
- thickness of the grafted skin ([4]; FIG. 11, p<0.05): significantly reduced
- number of capillary endothelial cells (CD31-positive) ([4]; FIG. 13, p<0.05): significantly reduced
- frequency of Ki-67 expressing positive cells in the basal cell layer ([4]; FIG. 15, p<0.05): significantly reduced
- thickness of the grafted skin ([5]; FIG. 9, p<0.05): significantly reduced
- number of capillary endothelial cells (CD31-positive) ([5]; FIG. 12, p<0.05): significantly reduced
- frequency of Ki-67 expressing positive cells in the basal cell layer ([5]; FIG. 14, p<0.05): significantly reduced
